The values that follow come from US20120020975A1.

The Kd is the concentration at which binding is half-saturated. A lower Kd goes with higher affinity. The term koff denotes a measure of how fast the partners let go of each other. A word on the kon: it is the second-order rate constant of association. Read a high kon as fast association.

Assay [1] has as its target human PCSK9 (proprotein convertase subtilisin kexin type 9), mature form (human) (UniProt Q8NBP7). Description: BIAcore SPR, pH 6.0. (In general: In SPR one partner is held on a chip, and binding of the other changes the refractive index at the surface.)
Assay [2] has the same target. Kind of assay: BIAcore SPR, pH 7.4.
For assay [3] the target is unchanged. Description: KinExA solution equilibrium, PCSK9-coated beads. (In general: In KinExA the mixture passes briefly over coated beads that capture the unbound partner.)
The target is the same in assay [4]. Kind of assay: BIAcore SPR, antibody amine-coupled to CM5 chip, PCSK9 as analyte, pH 7.4.
Assay [5] has the same target. Description: BIAcore solution equilibrium binding assay, free PCSK9 read on immobilized 21B12.

B1: 16F12, anti-PCSK9 huIgG4 (antibody, V domains shown)
VH: QVHLVESGGGVVQPGRSLRLSCAASGFTFNSFGMHWVRQAPGKGLEWVALIWSDGSDEYYADSVKGRFTISRDNSKNTLYLQMNSLRAEDTAVYYCARAIAALYYYYGMDVWGQGTTVTVSS
VL: QSVLTQPPSVSAAPGQKVTISCSGSSSNIGNNFVSWYQQLPGTAPKLLIYDYNKRPSGIPDRFSGSKSGTSATLGITGLQTGDEADYYCGTWDSSLSAYVFGTGTRVTVLQ
As to B1, the Kd is 0.029 nM in assay [1], 0.47 nM in assay [2], 0.015 nM in assay [3] and 0.47 nM in assay [4]. In addition, the off-rate (koff) in assay [1] is 7.01e-05 s⁻¹; in assay [2], 4.98e-05 s⁻¹. For the same molecule, the kon in assay [1] was 2.39e+06 M⁻¹ s⁻¹; in assay [2] it was 106000 M⁻¹ s⁻¹.

B2: 21B12, anti-PCSK9 huIgG4 (antibody, V domains shown)
VH: QVQLVQSGAEVKKPGASVKVSCKASGYTLTSYGISWVRQAPGQGLEWMGWVSFYNGNTNYAQKLQGRGTMTTDPSTSTAYMELRSLRSDDTAVYYCARGYGMDVWGQGTTVTVSS
VL: QSALTQPASVSGSPGQSITISCTGTSSDVGGYNSVSWYQQHPGKAPKLMIYEVSNRPSGVSNRFSGSKSGNTASLTISGLQAEDEADYYCNSYTSTSMVFGGGTKLTVLQ
Take B2: the equilibrium dissociation constant (Kd) was determined as 0.0073 nM in assay [1], 0.19 nM in assay [2], 0.19 nM in assay [4] and 0.015 nM in assay [5]. Also, the dissociation rate constant (koff) in assay [1] amounted to 1.68e-05 s⁻¹; in assay [2], 6.63e-06 s⁻¹. Also, the kon in assay [1] is 2.29e+06 M⁻¹ s⁻¹; in assay [2], 34900 M⁻¹ s⁻¹.
